Three substances from paper PMC11077940 can be followed below.

Read-outs that look alike come from different tables or passages of the source.

Experiment [1] has as its target ATP hydrolysis-deficient DctD, DctD_(H216R), prepared as a dephosphorylated form (d-DctD_(H216R)) (Vibrio vulnificus). In words: SEC; d-DctD_(H216R) (alkaline phosphatase-treated) and d-IIA^Glc in 50 mM Tris-HCl pH 8.0, 20 mM KCl, 50 mM MgCl2, 100 mM NaCl applied to Superdex 200 Increase 10/300 GL; fractionated multimers used for the ATPase assay. On the technique in general: Size exclusion chromatography separates by hydrodynamic size, large species first.

Experiment [2] has the same target. Described as above. The source holds these as a separate data set.
Experiment [3] concerns the target phosphorylation-deficient DctD (DctD_(D57Q)) of Vibrio vulnificus (Vibrio vulnificus). In words: SEC; GPC of mixtures of d-IIA^Glc and DctD_(D57Q) (20 µM each; also 5 µM + 20 µM and 20 µM + 5 µM); Superdex 200 Increase 10/300 GL, running buffer 50 mM Tris-HCl pH 8.0, 20 mM KCl, 50 mM MgCl2, 300 mM NaCl; fractions analysed by SDS-PAGE with densitometry against known amounts of each protein.

Experiment [4] has the same target. Description: SEC; GPC of recombinant DctD_(D57Q) alone; Superdex 200 Increase 10/300 GL, running buffer 50 mM Tris-HCl pH 8.0, 20 mM KCl, 50 mM MgCl2, 300 mM NaCl, 0.4 mL/min; size from a regression of standard proteins.

As for “ATP hydrolysis-deficient DctD, DctD_(H216R), prepared as a dephosphorylated form (d-DctD_(H216R)) (natural protein)”, the stoichiometry N in experiment [1] was determined as 12; in experiment [2], 2.
As for “dephosphorylated form of the glucose-specific enzyme IIA (d-IIA^Glc) (natural protein)”, in experiment [3], the stoichiometry N was found to be 1 molar ratio.
For the substance “phosphorylation-deficient DctD (DctD_(D57Q)) of Vibrio vulnificus (natural protein)”, the stoichiometry N in experiment [4] came to 2.

The term stoichiometry N denotes a count of units in the complex or per binding partner.
